Assay results as given in patent US20210253718A1, “FRIZZLED5 PROTEIN-BINDING AGENTS” (Modmab Therapeutics Corporation, priority 2016, published 2021).
Residue numbers refer to the chain shown, from its start.

T1: FZD4 CRD (Homo sapiens, UniProt Q9ULV1)
T1 construct: E42-V167; GPI anchor signal (C); expressed in transfected cells; host or cells: CHO cells, lentiviral pLenti-puro
T1 sequence (Q9ULV1 42-167): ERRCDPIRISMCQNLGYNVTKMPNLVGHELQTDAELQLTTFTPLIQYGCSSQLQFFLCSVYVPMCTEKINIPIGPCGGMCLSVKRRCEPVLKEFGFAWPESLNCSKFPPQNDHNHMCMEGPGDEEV

T2: FZD8 CRD (Homo sapiens, UniProt Q9H461)
T2 construct: K31-D155; GPI anchor signal (C); expressed in transfected cells; host or cells: CHO cells, lentiviral pLenti-puro
T2 sequence (Q9H461 31-155): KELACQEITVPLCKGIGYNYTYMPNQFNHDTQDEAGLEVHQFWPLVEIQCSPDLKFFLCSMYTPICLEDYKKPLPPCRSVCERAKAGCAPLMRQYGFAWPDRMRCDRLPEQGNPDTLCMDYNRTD

T3: FZD3 CRD (Homo sapiens, UniProt Q9NPG1)
T3 construct: CRD of FZD1, FZD2, FZD3, FZD4, FZD5, FZD6, FZD7, FZD8, FZD9 or FZD10; GPI anchor signal (C); expressed in transfected cells; host or cells: CHO cells, lentiviral pLenti-puro
T3 sequence (Q9NPG1 23-136 limits assumed): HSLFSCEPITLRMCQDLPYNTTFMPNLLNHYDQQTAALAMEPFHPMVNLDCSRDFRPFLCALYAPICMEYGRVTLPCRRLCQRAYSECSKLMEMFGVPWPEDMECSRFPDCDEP

T4: FZD10 CRD (Homo sapiens, UniProt Q9ULW2)
T4 construct: 30-156; GPI anchor signal (C); expressed in transfected cells; host or cells: CHO cells, lentiviral pLenti-puro
T4 sequence (Q9ULW2 30-156): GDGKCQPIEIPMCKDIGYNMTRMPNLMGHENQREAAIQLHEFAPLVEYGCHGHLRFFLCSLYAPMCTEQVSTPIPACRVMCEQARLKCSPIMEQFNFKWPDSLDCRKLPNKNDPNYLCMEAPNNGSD

T5: FZD6 CRD (Homo sapiens, UniProt O60353)
T5 construct: S20-P146; GPI anchor signal (C); expressed in transfected cells; host or cells: CHO cells, lentiviral pLenti-puro
T5 sequence (O60353 20-146): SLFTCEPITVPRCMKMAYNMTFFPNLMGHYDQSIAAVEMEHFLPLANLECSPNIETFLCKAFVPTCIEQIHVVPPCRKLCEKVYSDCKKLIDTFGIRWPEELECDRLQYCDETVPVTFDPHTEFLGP

B1: Fab-2901: anti-FZD5 Fab with antibody variable region Fv-2901; CDR SEQ ID NOs: 35, 36, 40, 79, 116, 154 (antibody, V domains shown)
VH: EVQLVESGGGLVQPGGSLRLSCAASGFNISYSYMHWVRQAPGKGLEWVASIYSYSSYTYYADSVKGRFTISADTSKNTAYLQMNSLRAEDTAVYYCARSWYYWSPSSGMDYWGQGTLVTVSS
VL: DIQMTQSPSSLSASVGDRVTITCRASQSVSSAVAWYQQKPGKAPKLLIYSASSLYSGVPSRFSGSRSGTDFTLTISSLQPEDFATYYCQQGGFLITFGQGTKVEIK
B2: Fab-2898: anti-FZD5 Fab with antibody variable region Fv-2898; CDR SEQ ID NOs: 35, 36, 37, 76, 113, 152 (antibody, V domains shown)
VH: EVQLVESGGGLVQPGGSLRLSCAASGFNIYSYSMHWVRQAPGKGLEWVASIYSSSGSTSYADSVKGRFTISADTSKNTAYLQMNSLRAEDTAVYYCARAVWGLDYWGQGTLVTVSS
VL: DIQMTQSPSSLSASVGDRVTITCRASQSVSSAVAWYQQKPGKAPKLLIYSASSLYSGVPSRFSGSRSGTDFTLTISSLQPEDFATYYCQQWWGYYSLITFGQGTKVEIK
B3: Fab-2900: anti-FZD5 Fab with antibody variable region Fv-2900; CDR SEQ ID NOs: 35, 36, 39, 78, 115, 153 (antibody, V domains shown)
VH: EVQLVESGGGLVQPGGSLRLSCAASGFNLSSYYIHWVRQAPGKGLEWVASISSSSSSTSYADSVKGRFTISADTSKNTAYLQMNSLRAEDTAVYYCARGALDYWGQGTLVTVSS
VL: B2 VL with W92Y, G93S, Y94G, Y95S, I98F
B4: Fab-2925: anti-FZD5 Fab with antibody variable region Fv-2925; CDR SEQ ID NOs: 35, 36, 64, 102, 140, 172 (antibody, V domains shown)
VH: EVQLVESGGGLVQPGGSLRLSCAASGFNLSYSSMHWVRQAPGKGLEWVASIYPSYGSTYYADSVKGRFTISADTSKNTAYLQMNSLRAEDTAVYYCARYGYFGLDYWGQGTLVTVSS
VL: B2 VL with W91A, G93V, Y95A, I98F
B5: Fab-2899: anti-FZD5 Fab with antibody variable region Fv-2899; CDR SEQ ID NOs: 35, 36, 38, 77, 114, 153 (antibody, V domains shown)
VH: B3 VH with S30Y, S31Y, I34M, S52Y, S53P, S56G
VL: B2 VL with W92Y, G93S, Y94S, S96G

molecular target: T1, FZD4 CRD; test: Immunofluorescence of anti-FZD5 Fab binding to CHO cells overexpressing Frizzled CRD; set-up: key: −: no binding; +: very weak binder; ++: weak binder; +++: good binder; ++++: very good binder; conditions: not given
Experimental: (§1) Plasmids: pLCKO lentiviral vector used for knockout (TKO) library construction and expression of individual gRNAs was constructed as described previously (Hart et al., 2015). Briefly, single guide RNA (sgRNA) scaffold was amplified from px330 (Addgene 42230) and cloned into pLKO.TRC005 lentiviral vector (Broad Institute, Cambridge, Mass.) using AgeI/EcoRI restriction sites. BfuAI sites were added at the 5′ end of the sgRNA scaffold for cloning the TKO library or individual gRNA target sequences. Lenti Cas9-2A-BsdR vector used to generate Cas9 stable expression cell lines was constructed as described previously (Hart et al., 2015). Briefly, lentiCRISPR pXPR_001 (Addgene 49535) was modified through removal of the sgRNA scaffold region through NdeI/EcoRI digest and blunt ends generation using Large Klenow Fragment (NEB). 2A-puro was replaced with 2A-BsdR by PCR using the NheI/MluI sites. Each of the 10 human Frizzled cysteine rich domains (CRDs) were cloned into the lentiviral expression plasmid pLenti-puro in the following cassette: FZD_CRD-MYC-GPI.
(§2) To confirm that the FZD5-WNT7B circuit is not driven simply by expression and rule out the possibility of a disconnect between RNA and protein levels for the Wnt receptors in HPAF-II cells, a panel of recombinant Fabs were generated, alternatively referred to herein as ‘Frizzled profiler’, that can detect and discriminate all but one of the ten Frizzled receptors. […] To characterize the binding specificity of these Fabs on cells, a panel of 10 CHO cell lines was generated, each expressing the CRD domain of a different myc-tagged Frizzled family member anchored at the plasma membrane through a GPI anchor (CHO-myc-FZDGPI). Despite the high sequence identity between Frizzled family members (FIG. 7A, FIG. 7B), selective Fabs were identified for FZD4, FZD5, FZD6 and FZD10 as assessed by immunofluorescence and flow cytometry (FIG. 7D and FIG. 8). […] The FZD8 CRD is most homologous to that of FZD5 (FIG. 7B). These Fabs can be used to discriminate expression of FZD1, FZD2, FZD4, FZD5, FZD6, FZD7, FZD8, FZD9 and FZD10 (FIG. 7D and FIG. 8). The ‘Frizzled profiler’ therefore consists of 10 different Fabs that can be used to discriminate expression of 9 different Frizzled family members. The Frizzled profiler was then used to confirm that HPAF-II cells express FZD1, FZD5, FZD6 and possibly FZD8 (FIG. 7E).
(§3) The binding of anti-FZD5 Fabs to cell surface-expressed Frizzled protein was further determined for each member of the Frizzled family via flow cytometry and immunofluorescence analysis of a panel of 10 CHO cell lines, each ectopically over-expressing the extracellular cysteine-rich domain (CRD) of a different Frizzled protein family member.

| Immunofluorescence binding, Frizzled CRD overexpressed on CHO cells: FZD4 | Molecule |
| --- | --- |
| − | B1 |
| − | B2 |
| − | B3 |
| − | B4 |
| − | B5 |

molecular target: T2, FZD8 CRD; test: as above; set-up: key: −: no binding; +: very weak binder; ++: weak binder; +++: good binder; ++++: very good binder; conditions: not given
Experimental: as §1, §2, §3

| Immunofluorescence binding, Frizzled CRD overexpressed on CHO cells: FZD8 | Molecule |
| --- | --- |
| + | B1 |
| + | B2 |
| + | B3 |
| − | B4 |
| + | B5 |

molecular target: T6, FZD7 CRD (Homo sapiens, UniProt O75084); test: as above; set-up: key: −: no binding; +: very weak binder; ++: weak binder; +++: good binder; ++++: very good binder; conditions: not given
T6 construct: D45-S169; GPI anchor signal (C); expressed in transfected cells; host or cells: CHO cells, lentiviral pLenti-puro
Experimental: as §1, §2, §3

| Immunofluorescence binding, Frizzled CRD overexpressed on CHO cells: FZD7 | Molecule |
| --- | --- |
| + | B1 |
| +++ | B2 |
| + | B3 |
| ++ | B4 |
| +++ | B5 |

molecular target: T3, FZD3 CRD; test: as above; set-up: key: −: no binding; +: very weak binder; ++: weak binder; +++: good binder; ++++: very good binder; conditions: not given
Experimental: as §1, §2, §3

| Immunofluorescence binding, Frizzled CRD overexpressed on CHO cells: FZD3 | Molecule |
| --- | --- |
| − | B1 |
| − | B2 |
| − | B3 |
| − | B4 |
| − | B5 |

molecular target: T7, FZD2 CRD (Homo sapiens, UniProt Q14332); test: as above; set-up: key: −: no binding; +: very weak binder; ++: weak binder; +++: good binder; ++++: very good binder; conditions: not given
T7 construct: D35-P161; GPI anchor signal (C); expressed in transfected cells; host or cells: CHO cells, lentiviral pLenti-puro
Experimental: as §1, §2, §3

| Immunofluorescence binding, Frizzled CRD overexpressed on CHO cells: FZD2 | Molecule |
| --- | --- |
| − | B1 |
| +++ | B2 |
| − | B3 |
| +++ | B5 |

molecular target: T4, FZD10 CRD; test: as above; set-up: key: −: no binding; +: very weak binder; ++: weak binder; +++: good binder; ++++: very good binder; conditions: not given
Experimental: as §1, §2, §3

| Immunofluorescence binding, Frizzled CRD overexpressed on CHO cells: FZD10 | Molecule |
| --- | --- |
| − | B1 |
| − | B2 |
| − | B3 |
| − | B4 |
| − | B5 |

molecular target: T5, FZD6 CRD; test: as above; set-up: key: −: no binding; +: very weak binder; ++: weak binder; +++: good binder; ++++: very good binder; conditions: not given
Experimental: as §1, §2, §3

| Immunofluorescence binding, Frizzled CRD overexpressed on CHO cells: FZD6 | Molecule |
| --- | --- |
| − | B1 |
| − | B2 |
| − | B3 |
| − | B4 |
| − | B5 |

test system: ASPC-1 cells; test: Effect of anti-FZD5 Fabs on proliferation of pancreatic cancer cell lines (percent growth inhibition); type: cell-based, human; conditions: Fab 2 μg/ml

| Molecule | percent growth inhibition, ASPC-1 2 μg/ml [%] |
| --- | --- |
| B1 | −8.27 |
| B2 | 11.14 |
| B3 | −13.30 |
| B4 | −0.26 |
| B5 | 37.97 |

test system: RWP1 cells; test: as above; type: cell-based, human; conditions: Fab 2 μg/ml

| Molecule | percent growth inhibition, RWP1 2 μg/ml [%] |
| --- | --- |
| B1 | −19.95 |
| B2 | 21.46 |
| B3 | −28.30 |
| B4 | 30.69 |
| B5 | 37.95 |
